Results as given in article PMC6547725.

Molecular target: KRAS (aa 1–170, Homo sapiens), wild type (Homo sapiens) (UniProt P01116)

GTPase activity of KRAS wild type (GTP hydrolysis over time, HPLC) with 0.25 μM RAS-GAP; at 2.5 μM and 25 μM too fast to be resolved: 3.5 fold
Substance: RasGAP (aa 722–1056, Homo sapiens) (domain or fragment)
